According to publication PMC5320007, “PpEst is a novel PBAT degrading polyesterase identified by proteomic screening of Pseudomonas pseudoalcaligenes” (Applied Microbiology and Biotechnology, 2016):

Experiments:
PpEst = biological target: T1, PpEst (Ectopseudomonas oleovorans, UniProt W6R2Y2); experiment: 4-NPB hydrolysis inhibition, […] nm; format: biochemical
T1 construct: gene tesA

purified protein = substrate: CCCC(=O)Oc1ccc([N+](=O)[O-])cc1; experiment: purified protein; format: biochemical, Ectopseudomonas oleovorans; conditions: 20 mM Tris-HCl pH 8.0, 150 mM NaCl, 0.1% Triton X-100, 25 °C, 'Exponential Rise to maximum' fit

For `O=C(O)c1ccc(C(=O)OCCCCO)cc1` [BuTA, 4-(4-hydroxybutoxycarbonyl)benzoic acid], the Ki (PpEst) was 670 µM.

B1: PpEst (Ectopseudomonas oleovorans CECT 5344) (protein)
chain: GTLLVVGDSISAAFGLDSRQGWVALLEKRLSEEGFEHSVVNASISGDTSAGGAARLSALLAEHKPELVIIELGGNDGLRGQPPAQLQQNLASMVEQSQQAGAKVLLLGMKLPPNYGVRYTTAFAQVFTDLAEQKQVSLVPFFLEGVGGVPGMMQADGIHPAEAAQEILLDNVWPTLKPML
B1 gave a Km (purified protein) of 4.85 mM and a kcat (purified protein) of 1.98 s⁻¹.
